Measured values published in article PMC5551578 (The Journal of Experimental Medicine, 2017).
Numbering of substitutions follows the chain as printed.

B1: H1-Ab38 (antibody, V domains shown)
VH: EVQLVESGGGVVQPGRSLRLSCAASGFTFSSNAMHWVRQAPGKGLEWVAVISSDGSSKYYADSVKGRFTISRDNSKNTLFLQMNSLRADDTAIYYCARRYDGFDYWGQGSLVTVSS
VL: QSVLTQPASVSGSPGQSITISCTGTSSDVGSYNLVSWYQQHPGKAPKLMIYEVNKRPSGVSNRFSGSKSGNTASLTISGLQAEDEADYHCCSYAGSYTYVFGGGTKLTVL
B2: H1-Ab23 (antibody, V domains shown)
VH: EVQLVESGGGLVKPGGSLRLSCAASGFTFSSYSMHWVRQAPGKGLEWISSISSTGNYIYYADSVKGRFTISRDNARNSLYAQLNSLRAEDTAVYYCATGVTSSYGGHPGYFDSWGQGTLVTVSS
VL: DIRMTQSPSSLSASVGDRVTITCQASQDISKYLNWYQQKPGKAPKVLIYDASNLETGVPSRFSGSRSGTDFTFTISRLQPEDIGTYYCQQYDDPFLTFGGGTKVEIK
B3: H1-Ab4 (antibody, V domains shown)
VH: EVQLVESGGALRKPGASVRVSCRSSGYRFTSNGISWVRQAPGRGLEWMGWISANSGNTFYAQKFQGRVTMTTDTSASTAYVELRRLRPDDTAMYYCARDVHYRFDSWGQGTLVTVSS
VL: QSVLTQPPSASGSPGQSVAISCTGSSSDVGGYDWVSWYQQYPGKGPKLIIYEVNKRPPGVPDRFSGSKSGNTASLTVSGLQTEDEADYYCSSYAGGSRVFGGGTKLTVL
B4: H1-Ab53 (antibody, V domains shown)
VH: EVQLVESGLRLVKPSETLSVTCTVSGGSMSTTSYYWGWIRQPPGKALEWIGSIYYDGNSYYKPSLRSRFTMLVDTSKNQFSLKLTSVTAADTAVYYCARMSYMDYDFSTGYWNWFDPWGQGTLVTVSS
VL: QSVLTQPASVSGSPGQSITISCTGTRRDVGSYRLVSWYQHHPGKAPKLMIYEGTKRPSGVSDRFSGSKSGNTASIIISGFQAEDEADYYCCSYAGSSTWVFGGGTRVTVL
B5: H1-Ab8 (antibody, V domains shown)
VH: EVQLVQSGAEVKKPGASVKVSCKASGYTFADYYIHWVRQAPGQGLEWMGWINPNSGDTNYAQKFQGRVTMTRDTSISTGDMELSRLRSDDTAVYYCARANRGGYFAWAFFDFWGQGTLVTVSS
VL: EIVLTQSPGTLSLSPGERATLSCRASQSVSSRNLAWYQQKPGQAPRLLIYGASSRATGIPDRFSGSGSGTDFILSISRLEPEDFAVYYCQQYGSSPLTFGGGTKVEIK
B6: H1-Ab9 (antibody, V domains shown)
VH: EVQLVESGAEVKKPGAPVKVSCKASGYTFTRYYIHWVRQAPGQGLEWMGWINPDSGDTKCAQRFQGRVTMTRDTSVSTAYMELRRLGSDDTALYYCARIQLRSDGFDLWGQGTLVTVSS
VL: QSALTQPASVSGSPGQSITISCTGTSSDIGSYKFVSWYQQHPGKAPKVMIYEVTQRPSGVSNRFSGSKSGNTASLTISGLQAEDEADYYCCSYAGSSFWVFGGGTTLTVP
B7: H1-Ab33 (antibody, V domains shown)
VH: EVQLVESGGGLVQPGGSLRLSCAASGFTFSSYAMSWVRQAPGKGLEWVSGINAGGGSTFYADSVKGRFTISRGNSKNTLYLQMHSLRAEDTAIYYCAKDQGNAIFGLVIPSYYFDYWGQGTLVTVSS
VL: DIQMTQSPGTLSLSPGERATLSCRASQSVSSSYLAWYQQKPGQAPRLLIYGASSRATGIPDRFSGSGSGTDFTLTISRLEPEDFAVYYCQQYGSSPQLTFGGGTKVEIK
B8: H1-Ab37 (antibody, V domains shown)
VH: B7 VH with E1L, G73D
VL: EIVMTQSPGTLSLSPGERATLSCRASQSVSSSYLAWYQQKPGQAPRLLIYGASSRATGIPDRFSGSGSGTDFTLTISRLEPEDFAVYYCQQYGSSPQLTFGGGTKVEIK
B9: H1-Ab15 (antibody, V domains shown)
VH: EVQLVESGAEVKKPGSSVTVSCKASGNIFNSYTVSWVRQVPGQGLEWVARVIPTIGMSNYAPKLQGRVTVTADRSTNTAYMEVTSLRSEDTAVYYCATGPSYYYDANGSPTDYWGQGTLVTVSS
VL: DIQMTQSSATLSVSPGETATLSCRASQSVSSHLVWYQQKPGQAPRLIIYGASTRATGIPVRFSGSRSGTEFTLTISSLQSEDFAIYYCQQYNNWPWTFGQGTKVEIK
B10: H1-Ab61 (antibody, V domains shown)
VH: EVQLLESGAEVKKPGESLKISCKTSGYTFPRYWVGWVRQMPGKGLEWMGFIYPGDATTRYSPSFQGQVTISADKSINTAYLHWSSLKASDTAVYFCARHPGDKSFYYYGLDVWGQGTTVTVSS
VL: AIRMTQSPSTLSASVGDRVTITCRASQSIRSWLAWYQQKPGKAPKLLISKASSLQSGVPSRFSGTGSGTEFTLTISSLQPDDFATYYCQQYNSDSITFGQGTRLEIK
B11: H1-Ab11 (antibody, V domains shown)
VH: QVQLVQSGAEVKKPGSSVKVSCKASGVTFDTYAFSWVRQAPGQGLEWMGGISPIFTTTNYAQTFQGRVTITADKSTSTAYMELSSLISEDTAVYYCAKGGPTTGTPYYVFGLDVWGQGTMVTVSF
VL: DIVMTQSPLSSPVTLGQPASISCRSSQSLVHSDGNTYLSWLHQRPGQPPRLLIYKISNRFSGVPDRFTGSGAGTDFTLKISRVEAEDVGVYYCMQATQFQTFGQGTKVEIK
B12: H1-Ab18 (antibody, V domains shown)
VH: EVQLVESGGGLLKPGGSLRLSCAASGFTFNNAWMSWVRQPPGKGLEWVGRIKSESDDETPDYAAPVKGRFDISRDDSKNMLYLQMSSLKTEDTAVYYCATDHSSHYYDRPDYWGQGTLVTVSS
VL: QSVLTQSPSASASLGASVKLTCILSSGHSDYAIAWHQQQPEKGPRYLMKLNIDGSHSKGDGIPDRFSGSTSGAERYLTISSLQSEDEADYYCQTWDTGIHVFGGGTRLTVL
B13: H1-Ab51 (antibody, V domains shown)
VH: EVQLVESGPGLVKPSETLSLTCTVSGGSISSNTYYWGWIRQPPGKGLEWIETIYYSGSTYYNPSLKSRVTISVDTSKNQFSLKLSSVTAADSAVYYCARSYCGGGCNFDAFDIWGQGTVVTVSS
VL: QSVLTQPASVSGSPGQSITISCTGSSSDVGGYNYVSWYQQHPGKAPKLMIFDVSNRPSGVSNRFSGSKSGNTASLTISGLQAEDEADYYCSSYTSNITLVFGGGTKLTVL
B14: H1-Ab16 (antibody, V domains shown)
VH: EVQLVESGAEVKKPGSSVKVSCTASGGAFNSHTISWLRQTPGQGLEWMGRIIPILGMANYAQKFHGRVTITADISTNTAYMELSSLRSEDTAVYSCAGGTSRWFGDVEYWGQGSLVTVSS
VL: EIVLTQSPLSLPVTLGQPASISCRSSQSLVFSDGNTYLSWFHQRPGQAPRRLIYKVSDRDSGVPDRFSGSGSGTDFTLKISRVEAEDVGVYYCMQGSHWPPSFGPGTKVEIK
B15: H1-Ab26 (antibody, V domains shown)
VH: EVQLVQSGGGLVQPGSSLRLSCAASGFTFSNFAMSWVRQAPGKGLEWVSTINAGSGSKDYANSVKGRFTISRDNTKNTLYLQMKSLRAEDTAVYYCAKDTGHTIFGVVRPYYNGMDVWGQGTTVTVSS
VL: DNQMTQSPLSLPVTLGQPASISCRSSQSLVYSDGNTYLNWFQQRPGQSPRRLIYKVSNRDSGVPDRFSGSGSGTDFTLKISRVEAEDVGVYYCMQGTHPYTFGQGTKVEIK
B16: H1-Ab27 (antibody, V domains shown)
VH: B15 VH
VL: EIVMTQSPGTLSLSPGERATLSCRASQSVSSSYLAWYQQKPGQAPRLLIYGASSRATGIPDRFSGSGSGTDFTLTITRLEPEDFAVYYCQQYGGSPMYTFGQGTKVEIK
B17: H1-Ab1 (antibody, V domains shown)
VH: EVQLVQSGAEVKKPGASVKVSCKASGYIFTSYGISWVRLAPGQGLEWMGWISGYNSNTNYAQKFQGRVTVTADTSTSTAYMELRSLRSDDTAVYYCARDRAHILTGYHFDCWGQGTLVTVSS
VL: DIQMTQSPLSLPVTLGQPASISCRSSQSLVYIDGNTYLNWFQQRPGQSPRRLIYKVSNRDSGVPDRFSGSGSGTDFTLKISSVEAEDVGVYYCMQGTHWPPYTFGQGTKVEIK
B18: H1-Ab3 (antibody, V domains shown)
VH: B17 VH with Q6E, K13R, I28T, L39Q, G53A, S56G, F64L, T69I, V70M, A72T
VL: DIVMTQSPGTLSLSPGERATLSCGASQSVTSSYLAWYQQKPGQAPRLLIYDAPSRATGIPDRFSGSGSGTDFTLTISRLEPEDFAVYYCQQYGSSHVITFGQGTDWRLN
B19: H1-Ab2 (antibody, V domains shown)
VH: B17 VH with K13R, I28T, L39Q, G53A, S56G, F64L, T69I, V70M, A72T, C111Y
VL: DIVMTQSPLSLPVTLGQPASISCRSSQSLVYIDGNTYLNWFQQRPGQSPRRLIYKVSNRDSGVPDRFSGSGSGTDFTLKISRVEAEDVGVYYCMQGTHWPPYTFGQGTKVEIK
B20: H7-Ab3 (antibody, V domains shown)
VH: EVQLVESGAEVKKPGSSVKVSCKTSGGTFNIYAINWVRQAPGQGLEWMGMIIPIFGSPKTAREFQDRLTIDADTSTSTAYMELSNLTSEDTATYFCSRVADDYDFWSPNKFWGQGTLVTVSS
VL: DIQLTQSPSTLSASVGDTVTITCRASQSVNSWLAWYQQKPGKAPKLLIYKTFNLETGVPSRFSATGSGTEFTLTISRLQPDDFATYYCQQYNSNSHFGQGTKVEIK
B21: H7-Ab6 (antibody, V domains shown)
VH: EVQLVESGGGLVKPGGSLRLSCTASGFTFSDYPMSWVRQAPGKGLEWLSSISTGSTYIYYADSVKGRFTISRDNAQNSMYLQMNSLRAEDTAIYYCARGAKVELALGWYFDLWGRGTLVTVSS
VL: QSVLTQPPSVSAAPGQKVTISCSGSNSNIGNNFVSWYQQLPGTAPKLLIYDNNKRPSGIPDRVSGSKSGTSATLGITGLQTGDEADYYCGTWDNRLSAAVFGGGTKLTVL
B22: H7-Ab5 (antibody, V domains shown)
VH: EVQLVESGAEMRKPGSSVKVSCKASGGTFNTYGISWVRQAPGQGLEWMGGIIPMFGTENHAQKFQGRVTITADKSTSIAYMELSSLTSEDTAVYYCARAPVVGSRNVYYYHGLDVWGQGTTVTVSS
VL: SYELTQPPSVSVSPGQTARITCSGDALPKRYAFWYQQKPGQAPVLVIYKDTERPSGIPERFSGSRSGTTVTLTISGVQAEDEGDYYCQSADSSDPCLFGGGTKLTVL
B23: H7-Ab4 (antibody, V domains shown)
VH: EVQLVESGAEVKKPGSSVKVSCKASGGTFSSHGINWVRQAPGQRLEWMGGINPISGTPHYAQKFQGRVTITADESTTTSYMELSSLRSEDTAVYYCARIHRAGLEANYWGQGTLVTVSS
VL: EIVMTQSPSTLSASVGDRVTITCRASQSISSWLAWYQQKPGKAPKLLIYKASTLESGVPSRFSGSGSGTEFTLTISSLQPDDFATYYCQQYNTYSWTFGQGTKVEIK
B24: H7-Ab1 (antibody, V domains shown)
VH: EVQLVQSGAEVKKPGASVKVSCKTSYAMHWVRQAPGQRLEWMGWINAGNGYTKYSPKFQGRVTFTWDTSASTAYMELNSLRSEDTAVYYCAHGSGSYLNWFDPWGQGTLVTVSS
VL: QSVLTQPASVSGSPGQSITISCTGTSSDVGGYNYVSWYQQHPGKAPKLMIYEVSNRPSGVSNRFSGSKSGNTASLTISGLQAEDEVDYYCTSYTSSSTLVAFGRGTKLTVL

Target: H1N1 HA (A/California/04/2009) (Influenza A virus A/California/04/2009 …, UniProt C3W5S1, strain)

Question: Does B1 bind?
Answer: binds

Question: Does B2 bind?
Answer: binds

Question: Does B3 bind?
Answer: binds

Question: Does B4 bind?
Answer: binds

Question: Does B5 bind?
Answer: binds

Question: Does B6 bind?
Answer: binds

Question: Does B7 bind?
Answer: binds

Question: Does B8 bind?
Answer: binds

Question: Does B9 bind?
Answer: binds

Question: Does B10 bind?
Answer: binds

Question: Does B11 bind?
Answer: binds

Question: Does B12 bind?
Answer: binds

Question: Does B13 bind?
Answer: binds

Question: Does B14 bind?
Answer: binds

Question: Does B15 bind?
Answer: binds

Question: Does B16 bind?
Answer: binds

Question: Does B17 bind?
Answer: binds

Question: Does B18 bind?
Answer: binds

Question: Does B19 bind?
Answer: binds

Target: H7N9 HA (A/Shanghai/1/2013) (Influenza A virus A/Shanghai/1/2013 …, strain)

Question: Does B20 bind?
Answer: binds

Question: Does B21 bind?
Answer: binds

Question: Does B22 bind?
Answer: binds

Question: Does B23 bind?
Answer: binds

Question: Does B24 bind?
Answer: binds
